Experimental data reported in patent publication EP4636087A1, “ANTI-GPA33 ANTIBODY AND UTILIZATION THEREOF” (Kagoshima University, priority 2022, dated 2024).

Key:
[1] = target: T1, human GPA33 expressed on HEK293STF cells (EGFP-human GPA33 expression vector, ORIGENE RG210225) (human, UniProt Q99795 22-319); assay: cell-based or functional assay
T1 sequence (looked up): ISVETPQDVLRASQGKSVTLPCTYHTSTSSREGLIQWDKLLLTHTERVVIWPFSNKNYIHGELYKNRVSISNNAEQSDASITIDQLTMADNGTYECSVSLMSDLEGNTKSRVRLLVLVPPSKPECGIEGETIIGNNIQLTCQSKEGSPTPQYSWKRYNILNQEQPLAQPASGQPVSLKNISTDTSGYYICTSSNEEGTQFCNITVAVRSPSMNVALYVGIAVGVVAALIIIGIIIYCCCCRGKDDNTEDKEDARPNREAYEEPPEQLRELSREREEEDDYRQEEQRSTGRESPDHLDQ

[2] = target: T2, human GPA33 expressed on CHO-K1 cells (hGPA33-expressing cells co-expressing GFP) (human, UniProt Q99795 22-319); assay: FACS, cloned phage on GPA33-expressing CHO-K1 cells
T2 construct: whole, on cells; CHO-K1 transfected with an hGPA33 expression vector (ORIGENE) co-expressing GFP
T2 sequence (looked up): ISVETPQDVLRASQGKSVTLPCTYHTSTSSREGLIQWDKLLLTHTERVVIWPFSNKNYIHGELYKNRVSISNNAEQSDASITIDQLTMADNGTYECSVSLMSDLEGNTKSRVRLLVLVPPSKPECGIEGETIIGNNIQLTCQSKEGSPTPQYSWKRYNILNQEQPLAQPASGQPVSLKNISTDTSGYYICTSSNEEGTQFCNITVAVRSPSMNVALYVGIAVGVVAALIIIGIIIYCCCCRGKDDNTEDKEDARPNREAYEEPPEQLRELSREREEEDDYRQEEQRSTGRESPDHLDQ

[3] = target: T3, mouse GPA33 expressed on CHO-K1 cells (mGPA33-expressing cells) (mouse, UniProt Q9JKA5 22-319); assay: as above
T3 construct: whole, on cells
T3 sequence (looked up): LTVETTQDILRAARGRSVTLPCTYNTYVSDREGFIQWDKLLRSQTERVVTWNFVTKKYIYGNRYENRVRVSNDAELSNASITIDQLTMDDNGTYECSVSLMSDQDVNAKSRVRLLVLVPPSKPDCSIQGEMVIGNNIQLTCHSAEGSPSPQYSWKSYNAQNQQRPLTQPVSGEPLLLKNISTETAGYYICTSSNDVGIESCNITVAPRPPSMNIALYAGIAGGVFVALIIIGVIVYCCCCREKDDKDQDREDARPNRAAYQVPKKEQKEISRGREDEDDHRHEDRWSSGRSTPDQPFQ

[4] = target: T4, mouse GPA33 recombinant protein (C-terminal His tag fusion protein, abcam) (mouse, UniProt Q9JKA5 22-235, limits assumed); assay: SPR, Biacore T200, 25°C, GPA33-His amine-coupled on CM5, scFv-Fc as analyte, 1:1 binding model
T4 construct: Bought recombinant protein (abcam); also called mGPA33
T4 sequence (looked up): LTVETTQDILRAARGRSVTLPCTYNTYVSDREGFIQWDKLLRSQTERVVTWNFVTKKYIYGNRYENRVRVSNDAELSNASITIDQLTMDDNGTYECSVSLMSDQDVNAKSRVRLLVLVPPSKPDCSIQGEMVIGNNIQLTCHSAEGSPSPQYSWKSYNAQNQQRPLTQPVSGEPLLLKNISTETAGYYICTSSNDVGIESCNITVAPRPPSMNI

[5] = target: T5, human GPA33 recombinant protein (C-terminal His tag fusion protein, abcam) (human, UniProt Q99795 22-235, limits assumed); assay: as above
T5 construct: Bought recombinant protein (abcam); also called hGPA33
T5 sequence (looked up): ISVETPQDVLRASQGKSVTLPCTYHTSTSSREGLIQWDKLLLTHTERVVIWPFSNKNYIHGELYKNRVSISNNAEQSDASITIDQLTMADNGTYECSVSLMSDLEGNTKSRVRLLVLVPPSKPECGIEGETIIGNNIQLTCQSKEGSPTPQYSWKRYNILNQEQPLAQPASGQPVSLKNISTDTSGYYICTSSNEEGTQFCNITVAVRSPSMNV

Row | Binder | EC50(GPA33) (nM), Wnt/β-catenin reporter in 293STF cells expressing GPA33 [1] [nM] | EC50(MOG)/ EC50(GPA33) [1] | other results
1 | G17-R4CRD-His (other) QMQLVQSGGGLVKPGGSLRLSCAASGFTFSSYNMNWVRQAPGKGLEWVSSISSSGDFMYYADSVKGRFTISRDNAKNSLYLQMSSLRAEDTAVYYCAREGPGTPFDYWGQGTLVTVSSGGGGSGGGGSGSTGSAIQLTQSPSSLSASVGDRVTITCRASQSISSFLNWYQHKPGKAPKLLIYVASSLQSGVPSRFSGSGSGTDFTLTISSLQPEDFATYYCQQSHNTPYTFGQGTKLEIKGGSGGSGGNCTGCIICSEENGCSTCQQRLFLFIRREGIRQYGKCLHDCPPGYFGIRGQEVNRCKKCGATCESCFSQDFCIRCKRQFYLYKGKCLPTCPPGTLAHQNTRECQGHHHHHHGA | 0.008 | 348 | 
2 | GPA33-2RC28 cloned scFv phage (scFv) scFv: EVQLVESGGGLVKPGGSLRLSCAASGFTFSSYSMNWVRQAPGKGLEWVSSISRDSTYIYYADSVKGRFTISRDNAKNSLYLQMNSLRAEDTAVYYCAREGVAGAFDIWGQGTMVTVSSGGGGSGGGGSGSTGSAIQLTQSPSSLSASVGDRVTITCRASQSISSYLNWYQQKPGKAPKLLIYIASSLQSGVPSRFSGSGSGTDFTLTISSLQPEDFATYYCQQSYNTWTFGQGTKVEIK |  |  | binding result [2]: binds; binding result [3]: binds
3 | G17-R1CRD-GS3-Fcm (Fc fusion) QMQLVQSGGGLVKPGGSLRLSCAASGFTFSSYNMNWVRQAPGKGLEWVSSISSSGDFMYYADSVKGRFTISRDNAKNSLYLQMSSLRAEDTAVYYCAREGPGTPFDYWGQGTLVTVSSGGGGSGGGGSGSTGSAIQLTQSPSSLSASVGDRVTITCRASQSISSFLNWYQHKPGKAPKLLIYVASSLQSGVPSRFSGSGSGTDFTLTISSLQPEDFATYYCQQSHNTPYTFGQGTKLEIKGGSGGSISAEGSQACAKGCELCSEVNGCLKCSPKLFILLERNDIRQVGVCLPSCPPGYFDARNPDMNKCIKCKIEHCEACFSHNFCTKCKEGLYLHKGRCYPACPEGSSAANGTMECSSGGGGSGGGGSGGGGSEPKSADKTHTCPPCPAPEAEGAPSVFLFPPKPKDTLMISRTPEVTCVVVDVSHEDPEVKFNWYVDGVEVHNAKTKPREEQYNSTYRVVSVLTVLHQDWLNGKEYKCAVSNKALPASIEKTISKAKGQPREPQVYTLPPSREEMTKNQVSLTCLVKGFYPSDIAVEWESNGQPENNYKTTPPVLDSDGSFFLYSKLTVDKSRWQQGNVFSCSVMHEALHNHYTQKSLSLSPGK | 0.054 | > 556 | 
4 | GPA2RC28-Fc (anti-GPA33 single-chain Fv-Fc, scFv linked to human IgG1-Fc) (Fc fusion, also called 2RC28 scFv-Fc; 2RC28 single-chain Fv-Fc) EVQLVESGGGLVKPGGSLRLSCAASGFTFSSYSMNWVRQAPGKGLEWVSSISRDSTYIYYADSVKGRFTISRDNAKNSLYLQMNSLRAEDTAVYYCAREGVAGAFDIWGQGTMVTVSSGGGGSGGGGSGSTGSAIQLTQSPSSLSASVGDRVTITCRASQSISSYLNWYQQKPGKAPKLLIYIASSLQSGVPSRFSGSGSGTDFTLTISSLQPEDFATYYCQQSYNTWTFGQGTKVEIKPKSSDKTHTCPPCPAPEAEGAPSVFLFPPKPKDTLMISRTPEVTCVVVDVSHEDPEVKFNWYVDGVEVHNAKTKPREEQYNSTYRVVSVLTVLHQDWLNGKEYKCAVSNKALPASIEKTISKAKGQPREPQVYTLPPSREEMTKNQVSLTCLVKGFYPSDIAVEWESNGQPENNYKTTPPVLDSDGSFFLYSKLTVDKSRWQQGNVFSCSVMHEALHNHYTQKSLSLSPGK |  |  | Kd [4]: 6900 pM; Kd [5]: 5700 pM
5 | G17-R2CRD-His (other) QMQLVQSGGGLVKPGGSLRLSCAASGFTFSSYNMNWVRQAPGKGLEWVSSISSSGDFMYYADSVKGRFTISRDNAKNSLYLQMSSLRAEDTAVYYCAREGPGTPFDYWGQGTLVTVSSGGGGSGGGGSGSTGSAIQLTQSPSSLSASVGDRVTITCRASQSISSFLNWYQHKPGKAPKLLIYVASSLQSGVPSRFSGSGSGTDFTLTISSLQPEDFATYYCQQSHNTPYTFGQGTKLEIKGGGGSGGGGSGGGGSNPICKGCLSCSKDNGCSRCQQKLFFFLRREGMRQYGECLHSCPSGYYGHRAPDMNRCARCRIENCDSCFSKDFCTKCKVGFYLHRGRCFDECPDGFAPLEETMECVEGHHHHHHGA | 0.021 | 15.2 | 
6 | GPA2RC17-Fc (anti-GPA33 single-chain Fv-Fc, scFv linked to human IgG1-Fc) (Fc fusion, also called 2RC17 scFv-Fc; 2RC17-scFv-Fc) QMQLVQSGGGLVKPGGSLRLSCAASGFTFSSYNMNWVRQAPGKGLEWVSSISSSGDFMYYADSVKGRFTISRDNAKNSLYLQMSSLRAEDTAVYYCAREGPGTPFDYWGQGTLVTVSSGGGGSGGGGSGSTGSAIQLTQSPSSLSASVGDRVTITCRASQSISSFLNWYQHKPGKAPKLLIYVASSLQSGVPSRFSGSGSGTDFTLTISSLQPEDFATYYCQQSHNTPYTFGQGTKLEIKPKSSDKTHTCPPCPAPEAEGAPSVFLFPPKPKDTLMISRTPEVTCVVVDVSHEDPEVKFNWYVDGVEVHNAKTKPREEQYNSTYRVVSVLTVLHQDWLNGKEYKCAVSNKALPASIEKTISKAKGQPREPQVYTLPPSREEMTKNQVSLTCLVKGFYPSDIAVEWESNGQPENNYKTTPPVLDSDGSFFLYSKLTVDKSRWQQGNVFSCSVMHEALHNHYTQKSLSLSPGK |  |  | Kd [4]: 3800 pM; Kd [5]: 1400 pM
7 | R1CRD-G17-His (other) ISAEGSQACAKGCELCSEVNGCLKCSPKLFILLERNDIRQVGVCLPSCPPGYFDARNPDMNKCIKCKIEHCEACFSHNFCTKCKEGLYLHKGRCYPACPEGSSAANGTMECSSGGGGSGGGGSGGGGSQMQLVQSGGGLVKPGGSLRLSCAASGFTFSSYNMNWVRQAPGKGLEWVSSISSSGDFMYYADSVKGRFTISRDNAKNSLYLQMSSLRAEDTAVYYCAREGPGTPFDYWGQGTLVTVSSGGGGSGGGGSGSTGSAIQLTQSPSSLSASVGDRVTITCRASQSISSFLNWYQHKPGKAPKLLIYVASSLQSGVPSRFSGSGSGTDFTLTISSLQPEDFATYYCQQSHNTPYTFGQGTKLEIKHHHHHHGA | 0.027 | 307 | 
8 | G17-R1CRD-His (other) QMQLVQSGGGLVKPGGSLRLSCAASGFTFSSYNMNWVRQAPGKGLEWVSSISSSGDFMYYADSVKGRFTISRDNAKNSLYLQMSSLRAEDTAVYYCAREGPGTPFDYWGQGTLVTVSSGGGGSGGGGSGSTGSAIQLTQSPSSLSASVGDRVTITCRASQSISSFLNWYQHKPGKAPKLLIYVASSLQSGVPSRFSGSGSGTDFTLTISSLQPEDFATYYCQQSHNTPYTFGQGTKLEIKGGSGGSISAEGSQACAKGCELCSEVNGCLKCSPKLFILLERNDIRQVGVCLPSCPPGYFDARNPDMNKCIKCKIEHCEACFSHNFCTKCKEGLYLHKGRCYPACPEGSSAANGTMECSSPAHHHHHHGA | 0.031 | 968 | 
9 | GPA33-2RC17 cloned scFv phage (scFv, also called G17) scFv: QMQLVQSGGGLVKPGGSLRLSCAASGFTFSSYNMNWVRQAPGKGLEWVSSISSSGDFMYYADSVKGRFTISRDNAKNSLYLQMSSLRAEDTAVYYCAREGPGTPFDYWGQGTLVTVSSGGGGSGGGGSGSTGSAIQLTQSPSSLSASVGDRVTITCRASQSISSFLNWYQHKPGKAPKLLIYVASSLQSGVPSRFSGSGSGTDFTLTISSLQPEDFATYYCQQSHNTPYTFGQGTKLEIK |  |  | binding result [2]: binds; binding result [3]: binds
